Consider one molecule from article PMC11869757 (Drug Design, Development and Therapy, 2025).

The target in this test is T1, CD122/IL-2Rβ with a His-tag (Sino Biological, 10696-H08B) (human, UniProt P14784).
T1 sequence: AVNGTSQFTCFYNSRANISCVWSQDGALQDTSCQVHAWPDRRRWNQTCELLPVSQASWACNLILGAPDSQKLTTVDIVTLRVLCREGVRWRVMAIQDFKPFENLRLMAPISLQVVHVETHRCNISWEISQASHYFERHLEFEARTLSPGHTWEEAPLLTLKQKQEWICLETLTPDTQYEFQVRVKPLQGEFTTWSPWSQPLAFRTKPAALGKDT
Kind of test: SPR. A general note: SPR reads the build-up and loss of mass on a sensor chip optically.

B1: SHR-1916, PEGylated interleukin-2 analogue (IL-2 N26Q/N29S/F42A/N71Q/L72G/C125A with a 20 kDa PEG at the N-terminus) (ligand)
chain: APTSSSTKKTQLQLEHLLLDLQMILQGISNYKNPKLTRMLTAKFYMPKKATELKHLQCLEEELKPLEEVLQGAQSKNFHLRPRDLISNINVIVLELKGSETTFMCEYADETATIVEFLNRWITFAQSIISTLT
modifications: 20 kDa PEG on the N-terminal amine group
Broadly, the Kd is the constant that tells how readily two partners part at equilibrium. In turn, B1 showed a Kd of 1710 nM.
